Test results: patent US20220125947A1 (published 2022)

molecular target: T1, γδ T cell receptor on human γδ T cells (human); experiment: flow cytometry, dose-response binding at 37° C. on human γδ T cells
T1 construct: Mixed population of primary cells; also called AG000003021 (γδ T cells)
Method: Binding of antibodies to human γδ T cells or SKW cell lines expressing Vγ9/Vδ2, Vγ9/Vδ2 or Vγ5/Vδ2 was carried out by flow cytometry. Briefly, the cells were centrifuged at 300×g for 5 minutes and the pellet was resuspended in 34 ml fresh media (in RPMI+10% FBS). 50 μL of the cells were then plated (44K cells/well) into assay plates. Samples were incubated for one hour at 37° C. in tissue culture (TC) incubator followed by wash steps by adding 100 μl FACS staining buffer. Secondary detention antibodies (A647 conjugated anti-human IgG Fc specific antibody (2 μg/mL) along with AF488 anti mouse CD3, clone OKT3 at 1 ug/mL) were added at 50 μL/well to appropriate wells according to the plate map. After incubating for 60 minutes at 37° C. in the TC incubator, cells were again washed as described above. This is followed by resuspension in 20 μL/well running buffer containing 1:1000 dilution of Sytox blue dead cell stain and the plates were run on iQue Screener.
Gating and data analysis: Human anti-human Vγ9 antibody (VG9B2 mAb at 10 nM) was used to mark the gating of positive population. All cells were first gated for singlets on SCS-A vs. SCS-H dot plot, live/dead followed by CD3 positive population, and this subset of CD3 positive population was gated for Vγ9 positive binding using positive control mAb. Cells were also assessed for cell binding of control mAbs by RL1 (A647) Geomeans from the live cell population. Advanced metrics were used and normalization metrics were chosen to calculate fold over background wells containing secondary antibody alone (designated as ‘background’ within ForeCyt settings).

| Binder | Max. Activity |
| --- | --- |
| VG9B57 (antibody, human IgG1, kappa, V domains shown) VH: EVQLVESGGGLVKPGGSLRLSCAASGFTFSSHDMNWVRQAPGKGLGWVSSISSSSSYIFYADSVKGRFTISRDNAKNSLYLQMSSLRAEDTAVYYCARDLGVGVRDYYYYGMDVWGQGTMVTVSS VL: DIQMTQSPSAMSASVGDRVTITCRASQDITNYLAWFQQKPGKVPKRLIYAASSLQGGVPSRFSGSGSGTEFTLTISSLQPEDFSTYYCLQHDTYPYTFGQGTKLEIKR | 1210 fold over background |
| VG9B152 (antibody, human IgG1, lambda, V domains shown) VH: EVQLVESGGGLVRPGGSLRLSCEASGFTFSSYSMIWVRQAPGKGLEWVSSISSSSDYIYNADSVKGRFTISRDNAKNSLYLQMNSLRAEDTAVYYCARDWELLGFDCWGQGTTVTVSS VL: SYELMQPPSVSVSPGQTASITCSGDKLGDKYACWYQQKPGQSPVLVIYQHNKRPSGIPERFSGSNSGKTATLTISGTQAMDEADYYCQAWDSTTVVFGGGTKLTVLG | 1850 fold over background |
| VG9B36 (antibody, human IgG1, kappa, V domains shown) VH: QVQLVESGGGLVKPGGSLRLSCASSGFTFSSYGMYWVRQAPGKGLEWVSSISTGSSYIYYADSVKGRFTISRDNAKNSLYLQMNSLRAEDTAVYYCARDKGLAVTGYIMDVWGQGTTVTVSS VL: EIVLTQSPSSLSASVGDRVTITCQASQDISNYLNWYQQKPGKAPKLLIYDASNLETGVPSRFSGSGSGTDFTFTISSLQPEDIAIYYCQQYDNLPMYTFGQGTKVEIKR | 2410 fold over background |
| VG9B162 (antibody, human IgG1, lambda, V domains shown) VH: QVQLVESGAEVTKPGASVKVSCKASGYTFTGDYMHWVRQAPGQGLEWMGWINPNSGYTNYAQKFQGRVTMTRDTSISTAYMELSRLRSDDTAVYYCAREGDAFDVWGQGTMVTVSS VL: QLVLTQSSSASGSPGQSVTISCTGTSSDVGGYNYVSWYQQHPGKAPKLMIYEVSKRPSGVPDRFSGSKSGNTASLTVSGLQAEDEADYYCNSYAGSNNFEVFGGGTKLTVLG | 1860 fold over background |
| VG9B127 (antibody, human IgG1, kappa, V domains shown) VH: QVQLVESGGGLVKPGGSLRLSCTASGFTFGAYTMNWVRQAPGKGLEWVSSISSSSSYIDFAESVKGRFTISRDNAKNSLYLQMISLRAEDTAVYYCARDGDIVSTIRGSFDYWGQGALVTVSS VL: EIVMTQSPLSLPVTPGEPASISCRSSQSLLDSDDGNTYLDWYLQKPGQSPQLLIYTLSYRASGVPDRFSGSGSGTDFTLKISRVEAEDVGIYYCMQRIEFPITFGQGTKVEIKR | 2230 fold over background |
| VG9B66 (antibody, human IgG1, kappa, V domains shown) VH: EVQLVESGGGLVKPGGSLRLSCAASGFTFSTYTMNWVRQAPGKGLEWVSSISSSSFYMDYADSVKGRFTISRDNAKNSLSLLMNSLRAEDTAVYYCARDGDIVATIRGSFDYWGQGTMVTVSS VL: EIVLTQSPSSLSTSVGDRVTITCRASQDITNFLAWYQQKPGKLPKLLIYTASTLQSGVPSRFSGSASGPDFTLTISSLQPEDVATYYCQKYNSAPFTFGPGTKVEIKR | 1220 fold over background |
| VG9B409 (antibody, human IgG1, kappa, V domains shown) VH: EVQLVESGAEVKKPGASVKVSCKASGYTLTSYYMHWVRQAPGQGLEWMGIINPSGGSTSYAQKFQGRVTMTRDTSTSTVYMELSSLRSEDTAVYYCARGSYGWYFDLWGRGTLVTVSS VL: EIVLTQSPGTLSLSPGERATLSCRASQSVTSSYLAWYQQKPGQTPRLLIYGASSRATGIPDRISGSGSGTDFTLTVSRLEPEDFAVYYCQQYGSSPPYTFGQGTKLEIKR | 411 fold over background |
| VG9B128 (antibody, human IgG1, kappa, V domains shown) VH: EVQLVESGGGVVQPGKSLRLSCTASGFTFGTYGMHWVRQAPGKGLDWVAVIWYNGSNKYYADSVKGRFTISRDNSKNTLYLQMNSLRTEDTAVYYCARGGFGESFDSWGQGTLVTVSS VL: DIVMTQTPATLSLSPGERATLSCRASQSVIDYLAWFQQKPGQAPRLLIYDASNRATGIPARFSGSGSGTDFTLTISSLEPEDFAVYYCQQRSNWPLTFGGGTKVEIKR | 1480 fold over background |
| VG9B64 (antibody, human IgG1, kappa, V domains shown) VH: QVQLVESGPTLVKPTQTLTLTCTFSGFSLSISGVSVGWIRQPPGKALEWLALIYWNDDKRYSPSLQSRVTITKDTSKNQVVLTVTNMDSVDTATYYCVHSGQWLEGDAFDIWGQGTMVTVSS VL: not shown | 1690 fold over background |

Further lines, results first:

| Max. Activity | Binder |
| --- | --- |
| 2320 fold over background | VG9B44 (antibody, human IgG1, kappa, V domains shown) VH: QVQLQQSGPGLVKPSQTLSLTCAISGDSVSSNSAAWNWIRQSPSRGLEWLGRTYYRSKWYNDYPISVKSRISINPDTSKNQFSLQLNSVTPEDTAVYYCARESGSYYTDGFDIWGQGTMVTVSS VL: DIQMTQSPSFLSASVGDRVTITCRASQGISSYLAWYQQKPGKAPKLLIYAASTLQSGVPSRFSGSGSGTEFTLTISSLQPEDFATYYCQEFNSYPYTFGQGTKLEIKR |
| 2390 fold over background | VG9B403 (antibody, human IgG1, kappa) heavy: not shown light: DIVMTQSPGTLSLSPGDRATLSCRASQSVASSYLAWYQQKPGQSPRLLIYGASSRATGIPDRFSGSGSGTDFTLTISRLEPEDFAVYYCQQYGSSPPYTFGQGTKVEIKRTVAAPSVFIFPPSDEQLKSGTASVVCLLNNFYPREAKVQWKVDNALQSGNSQESVTEQDSKDSTYSLSSTLTLSKADYEKHKVYACEVTHQGLSSPVTKSFNRGEC |
| 2200 fold over background | VG9B137 (antibody, human IgG1, kappa, V domains shown) VH: EVQLVESGGGLVKPGGSLRLSCAAFGITFSSYSMDWVRQAPGRGLEWVSSIGSSSSYIFYADSVKGRFTISRDNAKNSLYLQMNSLRAEDTAVYYCATSYSWNYGGAFDIWGQGTMVTVSS VL: not shown |
| 2090 fold over background | VG9B33 (antibody, human IgG1, kappa, V domains shown) VH: EVQLVESGGGLVKPGGSLRLSCAASGFTFSSYNMNWVRQAPGKGLEWVSSISTSSSYIYYADSVKGRFTISRDNAKNSLYLQMNGLRAEDTAVYYCARDTSVTKYPDTFDIWGQGTMVTVSS VL: DIVMTQSPSSLSASVGDRVTITCRASQDINNYLAWFQQKPGKVPNLLIYGASTLQSGVPSRFTGSGSGTDFTLTISSLQPEDVATYYCQKYNSAPFTFGPGTKVDIKR |
| 2370 fold over background | VG9B191 (antibody, human IgG1, lambda, V domains shown) VH: EVQLVQSGGGLVKPGGSLRLSCAASGFTFSRYSMNWVRQAPGKGLEGVSSISSSSSYIYYADSVKGRFTISRDNAKNSLYLQMNSLRAEDTAVYYCARDGPTVNWDYYFDLWGRGTLVTVSS VL: QSVLTQPPSVSAAPGQKVTISCSGSSSNIGNNYVSWYQQLPGTAPKLLIYDNNKRPSGIPDRFSGSKSGTSATLGITGLQTGDEADYYCGTWDSSLSTSVVFGGGTKLTVLG |
| 2250 fold over background | VG9B402 (antibody, human IgG1, kappa) heavy: not shown light: DIQMTQSPSSVSASVGDRVTITCRASQGINSWLAWYQQKPGNAPKLLIYAASSLQSGVPSRFSGIGSGTDFIFTISSLQPEDFASYYCQQANSFPWTFGQGTKVDIKRTVAAPSVFIFPPSDEQLKSGTASVVCLLNNFYPREAKVQWKVDNALQSGNSQESVTEQDSKDSTYSLSSTLTLSKADYEKHKVYACEVTHQGLSSPVTKSFNRGEC |
| 567 fold over background | VG9B60 (antibody, human IgG1, kappa, V domains shown) VH: QVQLVQSGAEVKKPGASVKVSCKASGYTFTGYYMHWVRQAPGQGLEWMGRINPNSGVTHYAQKFQGRVTMTRDTSISTAYMELSRLRSDDTAVYYCARGGSLVRGVISGLDYWGQGTTVTVSS VL: DIVMTQSPGTLSLSPGERATLSCRASQSFSGSYLAWYQQKPGQAPSLLIYGASSRATGIPDRFSGSGSGTDFTLTISRLEPEDFALYYCQQYGSSPPYTFGQGTKVEIKR |
| 2270 fold over background | VG9B67 (antibody, human IgG1, kappa, V domains shown) VH: EVQLVESGGGLVKPGGSLRLSCAASGFTFSSYTMNWVRQAPGKGLEWVSSISSSSSYIDYAESVKGRFTISRDNAKNSLYLQMNSLRAEDTAVYYCARDGDILATIRGSFDYWGQGTTVTVSS VL: DIVMTQTPLSLPVTPGEPASISCRSSQSLLDSDAGNTYLDWYLQKPGQSPQLLIYTLSYRASGVPDRFSGSGSGTDFTLKISRVEAEDVAIYYCMQRIEFPITFGQGTKVEIKR |
| 577 fold over background | VG9B135 (antibody, human IgG1, kappa, V domains shown) VH: QVTLKESGPTLVTPSQTLTLTCTFSGFSLTTYGVGVGWIRQPPGKALEWLALIYWNDDKRYYPSLNNRLTITKDTSKHLVVLTLTNMDPVDTATYYCAHDYDFWSGYFDYWGQGTLVTVSS VL: not shown |
| 1670 fold over background | VG9B21 (antibody, human IgG1, kappa, V domains shown) VH: EVQLLESGGGLVKPGGSLRLSCAASGFSFSNYDMNWVRQAPRKGLEWVSSISSSSHYIYYADSLKGRFTISRDNAKNSLFLQMNSLRAEDTAVYYCARDRGVTTDYYYYALDVWGQGTMVTVSS VL: DIVMTQSPSSLSASVGDRVTITCRASQGIYNYLAWYQQKPGNVPKLLIYAASTLQSGVPSRFSGSGSGTDFSLTISSLQPEDFTTYYCQKYNRAPFTFGPGTKVDIKR |
| 1210 fold over background | VG9B32 (antibody, human IgG1, kappa, V domains shown) VH: EVQLVQSGGDLLQPGGSLRLSCAASGFTFSRYAMNWVRQAPGKGLEWVSFISGTGYTVYYADSVKGRFTISRDNAKNSLYLQMNSLRDEDTAVYYCARDQEPGFDYWGQGTLVTVSS VL: not shown |
